The results in this text go back to the RNAGym collection of RNA variant scans (doi:10.7554/elife.80360).

The labels stand for the following.
B1: Hammerhead Ribozyme (parent)
chain: ACCGGAUGUGCUUUCCGGUCUGAUGAGUCCGUGAGGACGAAACAG

Variants of B1 are the subject of the series. Kind of series: self-cleavage, relative activity (ratio to wild type); higher = more cleavage; co-transcriptional.
In the case of ACCGGAUGUGCUUUCCGUUCUGAUGAGUCCGUGAGGACGUAACAG, the self-cleavage was determined as 0.345.

Consider ACCGGGUGUGCUUUCCGGUCUGAUGAGUCUGUGAGGACGAAACAG, for which the self-cleavage was 0.634.

Consider ACCGGAUGUGCUUUCCGGUCUGAUGAGUCCGUGAGGACGAACCAC, for which the self-cleavage was 0.451.

Regarding ACCGGAUGUGCUUUCCGGUCUGAUGAGUGCGUUAGGACGAAACAG, the self-cleavage is 0.664.

On to ACCAGAUGUGCAUUCCGGUCUGAUGAGUCCGUGAGGACGAAACAG, for which the self-cleavage amounted to 0.589.

For the variant ACCGGAUGUGCUUUCCGGUCUGAUGGGUCCUUGAGGACGAAACAG, the self-cleavage worked out at 0.516.

Consider ACCGGAUCUGCUUUCCGGUCUGAUGAGUCCGUGACGACGAAACAG, for which the self-cleavage is 0.726.

In the case of ACCGGAUGUGCUGUCCGGUCUGAUGAGUCCGUGAGGAUGAAACAG, the self-cleavage is 0.724.

With ACCGGAUGUGCUUUCCGGUCUGACGAGUCCGUGAGGACGAAUCAG, the self-cleavage came out at 0.286.

As to ACGGGAUGUGCCUUCCGGUCUGAUGAGUCCGUGAGGACGAAACAG, the self-cleavage came out at 0.394.

Consider ACCGUCUGUGCUUUCCGGUCUGAUGAGUCCGUGAGGACGAAACAG, for which the self-cleavage stood at 0.336.

On to ACCGCAUGUGCUUUCCAGUCUGAUGAGUCCGUGAGGACGAAACAG, for which the self-cleavage came to 0.313.

For the variant ACCGGUUGUGCUUUCCGGUCUGAUGAGUCCGUGAGGACGAAACUG, the self-cleavage was 0.36.

Regarding ACUGGAUGUGCUUUCCGGUCUGAUGAUUCCGUGAGGACGAAACAG, the self-cleavage was 0.554.

On to ACCGGAUGUUUUUUCCGGUCUGAUGAGUCCGUGAGGACGAAACAG, for which the self-cleavage is 1.14.

For the variant ACCGGAUGUGCUUUCCGGUCUGAUGAGUCCAUUAGGACGAAACAG, the self-cleavage came out at 1.15.

In the case of ACCGGAUGUGCUUGCCGGUCUGUUGAGUCCGUGAGGACGAAACAG, the self-cleavage was determined as 0.256.

Take ACCGGAUGUGCUUUCCGAUCUGAUGAGUCCGUGAGGACGAAGCAG: the self-cleavage is 0.347.

ACCGGUUGUGCUUUCCGGUCUGCUGAGUCCGUGAGGACGAAACAG: the self-cleavage came to 0.368.

As to ACCGGAGAUGCUUUCCGGUCUGAUGAGUCCGUGAGGACGAAACAG, the self-cleavage is 1.29.

For the variant ACCGGAUGUGCUUACCGGUCUGAUGAUUCCGUGAGGACGAAACAG, the self-cleavage came to 0.405.

Regarding ACCGGACGUUCUUUCCGGUCUGAUGAGUCCGUGAGGACGAAACAG, the self-cleavage was 1.12.

Turning to ACCGGAUGUGCUUUCCGGUCUGAUGAGUUUGUGAGGACGAAACAG, the self-cleavage stood at 0.656.

As for ACCGGAUGUGCUUUCCGGUCUGAUGAGGCCGUGAGGACGAAAGAG, the self-cleavage amounted to 0.274.

With ACCGGAUGCGCUUUCCCGUCUGAUGAGUCCGUGAGGACGAAACAG, the self-cleavage is 0.354.

On to ACCGGAUGUGCUCUCCGGUCUGAUGAGUCCGUGAGGACGAAAAAG, for which the self-cleavage was 0.35.

Consider ACCCGAUGUGCUUUCCGGUCUGAUGAGUCCGGGAGGACGAAACAG, for which the self-cleavage stood at 0.324.

Regarding ACCGGAUGUGCUUUCCGGUCUGAUGAGUCCGUGCGGACGAUACAG, the self-cleavage stood at 0.363.

For the variant ACCUGAUGUGCUUUCCGGACUGAUGAGUCCGUGAGGACGAAACAG, the self-cleavage was found to be 0.304.

With ACCGGAUGUGCUUUCCGGUAUGAUGAGUCCGUGAGGACGAAACAA, the self-cleavage was 0.396.

In the case of ACCCGAUGUGCUUUCCGGUCUGAUGAGUCCGUAAGGACGAAACAG, the self-cleavage is 0.879.

AACGCAUGUGCUUUCCGGUCUGAUGAGUCCGUGAGGACGAAACAG: the self-cleavage stood at 0.288.

Take ACCGGAUGUGAUUUCCGGUCUGAUGAGUCCGUGAGGACGAAACAC: the self-cleavage amounted to 0.97.

In the case of ACCGGAUGUGAUUUCCGGUCUGAUGAGUCCGUGAGGACUAAACAG, the self-cleavage was 0.29.

For ACCGGAUGUGCUUUCCGGUCGGAUGAGUCCGUGCGGACGAAACAG, the self-cleavage came to 0.278.

In the case of ACCGGAUGUGCUUUCCGGUCUGAUGAGUCCGUGAGGUCGAUACAG, the self-cleavage stood at 0.307.

With ACCGGAUGCGCUUUCCGGUCUGAUGAGUCCGUGAGGACGAAACAA, the self-cleavage was found to be 0.78.

With ACCGGAUGUGCCUUCCGGUCUGAUGAGUCCGUGAGGACGAAACGG, the self-cleavage came to 1.6.

For ACCGGAUGUGCUUUCGGGUCUGAUGAGUCCGUGAGGACGAGACAG, the self-cleavage is 0.398.

On to ACCGGAUGUGCUUUACGGUCUGAUGAGUCCGUGAGGACGAAACAU, for which the self-cleavage stood at 0.467.

Consider ACCGGUAGUGCUUUCCGGUCUGAUGAGUCCGUGAGGACGAAACAG, for which the self-cleavage is 0.609.

Regarding ACCGGAUGUGCUUUCCGGUCUCAUGAGUCCGUGAGGUCGAAACAG, the self-cleavage worked out at 0.259.

With ACCGGAUGUGCUUUCCGUUCUGAUGAGUCCGUGAGCACGAAACAG, the self-cleavage stood at 0.308.

As for ACCGGAGGUGCUUUCCGGUCUGACGAGUCCGUGAGGACGAAACAG, the self-cleavage is 1.23.

For the variant ACCGGAUGUGUUUUCCGGUCUGAUGAGUCAGUGAGGACGAAACAG, the self-cleavage came to 0.765.

In the case of ACCGGAUGUGCUUCCCGGUCUGAUGAGUACGUGAGGACGAAACAG, the self-cleavage worked out at 0.461.

For the variant ACCGGAUGUGAUUUCCGGUCUGAUGAAUCCGUGAGGACGAAACAG, the self-cleavage is 0.928.

In the case of ACAGGAUGUGCUUUCCUGUCUGAUGAGUCCGUGAGGACGAAACAG, the self-cleavage came to 0.874.

Take GCCGGAUGUGCUUUCCGGUCUGAUGAGUCCGUGAGAACGAAACAG: the self-cleavage worked out at 1.21.

Turning to ACCGGAUGUGCUUUCCUGUCUGAUGAGUCCGUGAGGACGAAACAU, the self-cleavage came out at 0.589.

In the case of ACCGGAUGUGCUUCUCGGUCUGAUGAGUCCGUGAGGACGAAACAG, the self-cleavage is 0.996.

Turning to ACCGGAUGUGCUUUCCGGCCUGAUGAGUUCGUGAGGACGAAACAG, the self-cleavage came out at 0.491.

With ACCGGAUGUGCUUUCCGGUCUGAUGAGUCGGUGAGGACGUAACAG, the self-cleavage turned out to be 0.283.

In the case of ACCGGAUGUAUUUUCCGGUCUGAUGAGUCCGUGAGGACGAAACAG, the self-cleavage stood at 1.38.

With CCCGGAUGUGCUUUCCGGUCUGAUGAGUCCGUGAAGACGAAACAG, the self-cleavage came to 0.404.

For ACCGGCUGUGCUUUCUGGUCUGAUGAGUCCGUGAGGACGAAACAG, the self-cleavage was determined as 0.689.

As to ACCGGAUGUGCUUUCGGGACUGAUGAGUCCGUGAGGACGAAACAG, the self-cleavage was 0.253.
